B1: chimeric 194D3B2 (antibody, human IgG1, kappa, V domains shown)
VH: QAYLQQSGAELVRSGASVKMSCKASGYPFTSYNMHWVKQTPGQGLEWVGYIYPGNGGTNYNQKFRDKATLTADTSSSTAYMQISRLTSDDSAVYFCLTGRGFAYWGQGTLVTVSA
VL: DIVMTQSPSSLIVTPGERVTMSCKSSQSLLNSGNQKNYLTWYQQKPGQPPKLLIYRASTRESGVPDRFTGSGSGTDFTLTISSVQAEDLAVYYCQNDYSYPLTFGIGTKLELKR
notes: chimeric, human IgG1/kappa constant regions
B2: chimeric 234B9D4 (antibody, human IgG1, kappa, V domains shown)
VH: EIQLQQSGPDLMKPGSSVKISCTASGYSFTSYYIHWVKQSHGKTLEWIGYIDPFNGGTRYNQKFEGKAALTVDKSSTTAYMHLTSLTSDDSAVYYCASLRFFTYWGQGTLVTVSA
VL: DIVMTQSPSSLTVTAGEKVTMTCKSSQSLLNSGNQENYLTWYQQKPGQPPKLLISRASTRQSGVPDRFTGSGSGTDFTLTISSVQAEDLAVYYCQNDYSYPLTFGAGTKLELKR
notes: as for B1
B3: chimeric 182D10F1 (antibody, human IgG1, kappa, V domains shown)
VH: QAYLQQSGAELVRSGASVKMSCKASGYTFSSYNMHWVKQTPGQGLEWIGYIYPGNGGTNYNQKFKGKATLTADTSSSTAYMQISSLTSEDSAVYFCLTGRGFTYWGQGTLVTVSA
VL: DIVMTQSPSSLTVTAGEKVTMNCKSSQSLFNSGNQKNYLTWYQQKPGQPPKLLIYRASTRESGVPDRFTGSGSGTDFTLTISSVQAEDLAVYYCQNDYSYPLTFGVGTKLELKR
notes: as for B1
B4: chimeric 241H10A1 (antibody, human IgG1, kappa, V domains shown)
VH: QVQLQQSGAELVKPGASVKLSCKASGYTFTSFGINWLRQRPEQGLEWIGWIFPGDGNSKYNENFKGKATLTTDKSSSTAYMQVTRLTSEDSAVYFCARFYYGNSFANWGQGTLVTVSA
VL: DIVMTQSPSSLTVTAGEKVTMSCKSSQSLLNSGNQKNYLTWYQQKPGQPPKLLIYWAATRESGVPDRFTGSGSGTDFTLTISSVQAEDLAVYYCQNDYFYPFTFGGGTKLELKR
notes: as for B1
B5: chimeric 201F4H6 (antibody, human IgG1, kappa, V domains shown)
VH: QVQLKESGPGLVAPSQSLSITCTVSGFSLTSYGVSWVRQPPGKGLECLGVIWAGGNTNYNSALMSRLSISKDKSKSQVFLKMNSLQTDDTAMYYCARVYYGNAMDYWGQGTSVTVSS
VL: DIVMTQSPSSLTVTAGEKVTMSCKSSQSLLNSGNQKSYLTWYQQRPGQPPKLLIYWASTRESGVPDRFTGSGSGTDFTLTISSVQAEDLAVYFCQNVYFFPFTFGSGTKLETKR
notes: as for B1
B6: humanized 370E2B12C3-VH3 + VL1 (antibody, human IgG1, kappa, V domains shown)
VH: QVQLVESGGGVVQPGRSLRLSCAASGFSLTTYGVHWVRQAPGKGLEWVAVIWAGGSTNYNSALMSRFTISRDNSKNTLYLQMNSLRAEDTAVYYCARAAYYGNGLDYWGQGTMVTVSS
VL: DIVMTQSPDSLAVSLGERATINCKSSQTLLNSGNQKNYLTWYQQKPGQPPKLLIYWASTGESGVPDRFSGSGSGTDFTLTISSLQAEDVAVYYCQNAYFYPFTFGGGTKLEIKR
notes: humanized, human IgG1/kappa constant regions
B7: humanized 370E2B12C3-VH3 + VL2 (antibody, human IgG1, kappa, V domains shown)
VH: QVQLVESGGGVVQPGRSLRLSCAASGFSLTTYGVHWVRQAPGKGLEWVAVIWAGGSTNYNSALMSRFTISRDNSKNTLYLQMNSLRAEDTAVYYCARAAYYGNGLDYWGQGTMVTVSS
VL: DIVMTQSPLSLPVTPGEPASISCKSSQTLLNSGNQKNYLTWYLQKPGQSPQLLIYWASTGESGVPDRFSGSGSGTDFTLKISRVEAEDVGVYYCQNAYFYPFTFGGGTKVEIKR
notes: as for B6
B8: humanized 410H6H3-VH1.2 + VL1.1 (antibody, human IgG1, kappa, V domains shown)
VH: EVQLVESGGGLVQPGGSRRLSCAASGFTFSSSGMHWVRQAPGKGLEWVSYISSGSNTIYYADTLKGRFTISRDNAKNTLFLQMNSLRAEDTAVYYCARIYYGNSFVYWGQGTLVTVSS
VL: DIVMTQSPDSLAVSLGERATMSCKSSQSLLNSGNQKNYLTWYQQKPGQPPKMLIYWASTRESGVPDRFSGSGSGTDFTLTISSLQAEDVAVYYCQNNYYYPLTFGQGTKLEIKR
notes: as for B6
B9: humanized 412B6E4-VH1 + VL1.1 (antibody, human IgG1, kappa, V domains shown)
VH: EVQLVESGGGLVQPGGSLRLSCAASGFTFSSFGVHWVRQAPGKGLEWVSYISSGSSTIYYAHSVKGRFTISRDNAKNSLYLQMNSLRAEDTAVYYCARFYYGNSFAYWGQGTLVTVSS
VL: DIVMTQSPDSLAVSLGERATMSCKSSQSLLNSGNQKNYLTWYQQKPGQPPKMLIYWASTRESGVPDRFSGSGSGTDFTLTISSLQAEDVAVYYCQNAYTYPLTFGQGTKLEIKR
notes: as for B6
B10: humanized 412B6E4-VH1.1 + VL1.1 (antibody, human IgG1, kappa, V domains shown)
VH: EVQLVESGGGLVQPGGSLRLSCAASGFTFSSFGVHWVRQAPGKGLEWVAYISSGSSTIYYAHSVKGRFTISRDNAKNSLFLQMNSLRAEDTAVYYCARFYYGNSFAYWGQGTLVTVSS
VL: DIVMTQSPDSLAVSLGERATMSCKSSQSLLNSGNQKNYLTWYQQKPGQPPKMLIYWASTRESGVPDRFSGSGSGTDFTLTISSLQAEDVAVYYCQNAYTYPLTFGQGTKLEIKR
notes: as for B6
B11: humanized 410H6H3-VH1.2 + VL1 (antibody, human IgG1, kappa, V domains shown)
VH: EVQLVESGGGLVQPGGSRRLSCAASGFTFSSSGMHWVRQAPGKGLEWVSYISSGSNTIYYADTLKGRFTISRDNAKNTLFLQMNSLRAEDTAVYYCARIYYGNSFVYWGQGTLVTVSS
VL: DIVMTQSPDSLAVSLGERATINCKSSQSLLNSGNQKNYLTWYQQKPGQPPKLLIYWASTRESGVPDRFSGSGSGTDFTLTISSLQAEDVAVYYCQNNYYYPLTFGQGTKLEIKR
notes: as for B6
B12: humanized 370E2B12C3-VH3 + VL3 (antibody, human IgG1, kappa, V domains shown)
VH: QVQLVESGGGVVQPGRSLRLSCAASGFSLTTYGVHWVRQAPGKGLEWVAVIWAGGSTNYNSALMSRFTISRDNSKNTLYLQMNSLRAEDTAVYYCARAAYYGNGLDYWGQGTMVTVSS
VL: DVVMTQSPLSLPVTLGQPASISCKSSQTLLNSGNQKNYLTWFQQRPGQSPRRLIYWASTGESGVPDRFSGSGSGTDFTLKISRVEAEDVGVYYCQNAYFYPFTFGGGTKVEIKR
notes: as for B6
B13: humanized 412B6E4-VH1.2 + VL1.1 (antibody, human IgG1, kappa, V domains shown)
VH: EVQLVESGGGLVQPGGSRRLSCAASGFTFSSFGVHWVRQAPGKGLEWVSYISSGSSTIYYAHSVKGRFTISRDNAKNTLFLQMNSLRAEDTAVYYCARFYYGNSFAYWGQGTLVTVSS
VL: DIVMTQSPDSLAVSLGERATMSCKSSQSLLNSGNQKNYLTWYQQKPGQPPKMLIYWASTRESGVPDRFSGSGSGTDFTLTISSLQAEDVAVYYCQNAYTYPLTFGQGTKLEIKR
notes: as for B6
B14: humanized 410H6H3-VH1 + VL1 (antibody, human IgG1, kappa, V domains shown)
VH: EVQLVESGGGLVQPGGSLRLSCAASGFTFSSSGMHWVRQAPGKGLEWVSYISSGSNTIYYADTLKGRFTISRDNAKNSLYLQMNSLRAEDTAVYYCARIYYGNSFVYWGQGTLVTVSS
VL: DIVMTQSPDSLAVSLGERATINCKSSQSLLNSGNQKNYLTWYQQKPGQPPKLLIYWASTRESGVPDRFSGSGSGTDFTLTISSLQAEDVAVYYCQNNYYYPLTFGQGTKLEIKR
notes: as for B6

One assay concerns the target human Claudin18.2 (human). Put plainly: cell-based or functional assay.
As to B1, the “ADCC % Relative activity” value was 83.6% and the “ADCC EC50” value came to 0.0291 µg/mL.

For a further assay, the target named is T1, human Claudin18.2 (human).
T1 construct: also called CLDN18.2
Put plainly: FACS, Claudin18.2-HEK293 cells. The procedure: (§1) The binding of chimeric antibodies to Claudin18.2 expressed on HEK293 cells was determine by FACS analysis. Briefly, HEK293 cells expressing human Claudin18.2 as prepared in the foregoing Example were harvested and incubated with anti-Claudin18.2 mAbs at 4° C. for 40 min, followed by fluorophore (iFluor 647)-labeled goat […] IgG (H+L) secondary antibodies at 4° C. for 0.5 hour. The samples were then analyzed by flow cytometry.
B1 showed a 50% effective concentration (EC50) of 0.796 nM. Take B2: the EC50 turned out to be 2.6 nM. Compared with the last molecule, the EC50 is about 3.3-fold higher. Same read-out and setting: the value for B3 was 1.3 nM; that for B4 was 1.53 nM. On to B5, for which a half-maximal response (EC50) required 1.36 nM. The EC50 values of the last two molecules are within 1.5-fold of each other.

For another assay, the target named is T1, human Claudin18.2. Put plainly: FACS, Claudin18.2-HEK293 cells. The source holds these as a separate data set. As for the experimental part:
as §1
After initial screening of cell binding with transfected supernatants, the binding pattern of chimeric and up to 3 humanized antibodies on Claudin18.2 expressed on HEK293 cells were plotted with antibody in 3× serial dilutions, starting concentration of 45 μg/ml, following the protocol described in Example 3.
The molecule B6 came in with a concentration for a half-maximal effect (EC50) of 0.826 µg/mL and a Span of 4650. In the case of B7, a half-maximal response (EC50) required 0.794 µg/mL and the Span is 4300. The molecule B8 returned an EC50 of 0.555 µg/mL and a Span of 64500. In the same order, the values of B9 are 0.373 µg/mL and 65900. In the same order, the values of B10 are 0.571 µg/mL and 71300. On to B11, for which the concentration for a half-maximal effect (EC50) worked out at 0.372 µg/mL and the Span turned out to be 73000. In the same order, the values of B12 are 1.17 µg/mL and 5520. In the same order, the values of B13 are 0.512 µg/mL and 70300. B14 yielded a concentration giving a half-maximal response (EC50) of 0.33 µg/mL and a Span of 72100.

A further assay has as its target T1, human Claudin18.2. In words: cell-based or functional assay.
Take B1: the “CDC % Relative activity” value was 793% and the “CDC EC50” value came out at 0.34 µg/mL.

(Values after patent US20220073643A1 (NANJING GENSCRIPT BIOTECH, published 2022).)
